Source: the RNAGym collection of RNA variant scans (doi:10.1073/pnas.2313332121)

B1: TPR t1 (parent)
chain: GACCAAUCUGCCCUCAGAGCUCGAGAACAUCUUCGGAUGCAGAGGAGGCAGGCUUCGGUGGCGCGAUAGCGCCAACGUCCUCAACCUCCAAUGCAUCCCACCACAUGAUGAUGCCUGAAGAGCCUUGGUUUUUUG

Variants of: B1
Assay: polymerase ribozyme fitness, log enrichment relative to wild type (log ratio); higher = more active; in vitro selection for triplet polymerase activity
Method in brief: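 Mutant libraries for each subunit of a heterodimeric triplet polymerase ribozyme were made by PCR and then transcribed. Each library underwent one round of in vitro selection in triplicate: annealing with a biotinylated primer, the partner subunit and triplets, frozen incubation at −7 °C, gel excision of extended constructs, streptavidin-bead capture and RT-PCR. Input and output libraries were Illumina-sequenced, and only genotypes with ≥10 input reads and ≥1 read per output were kept. Fitness is the logarithm, base 2, of genotype enrichment over wild-type enrichment, computed from inverse-variance-weighted replicate averages.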
With G51A G93A the “polymerase ribozyme fitness (log ratio)” value was -3.45.
For G51A G93U, the “polymerase ribozyme fitness (log ratio)” value was -4.23.
For G51A C86A, the “polymerase ribozyme fitness (log ratio)” value was -2.78.
For G51A C86U, the “polymerase ribozyme fitness (log ratio)” value was -3.18.
With G51A C53G the “polymerase ribozyme fitness (log ratio)” value was -2.12.
In the case of C53A G71A C85A G135U, the “polymerase ribozyme fitness (log ratio)” value is reported as -4.02.
With G52U C56A C99U the “polymerase ribozyme fitness (log ratio)” value was -4.58.
In the case of C53U G60U, the “polymerase ribozyme fitness (log ratio)” value is reported as 0.63.
For G52A C70U G77A U78G C79U G117U, the “polymerase ribozyme fitness (log ratio)” value was -3.69.
In the case of C53G G61C, the “polymerase ribozyme fitness (log ratio)” value is reported as -1.1.
For G52C G61C C114G G120U, the “polymerase ribozyme fitness (log ratio)” value was -5.46.
In the case of C53U G71A C73A G77C C80U, the “polymerase ribozyme fitness (log ratio)” value is reported as -6.09.
With G52U G77U G117U U126C the “polymerase ribozyme fitness (log ratio)” value was -5.18.
For G51U C53U, the “polymerase ribozyme fitness (log ratio)” value was -2.7.
For G52A G69C C72U A95C, the “polymerase ribozyme fitness (log ratio)” value was -1.66.
For G52C G69U C97A, the “polymerase ribozyme fitness (log ratio)” value was -2.26.
In the case of C53G C123U, the “polymerase ribozyme fitness (log ratio)” value is reported as 0.236.
For G52C A83G, the “polymerase ribozyme fitness (log ratio)” value was -1.31.
With C53U G60U C101U A103C the “polymerase ribozyme fitness (log ratio)” value was -5.14.
For C53U C70U A74G G113C, the “polymerase ribozyme fitness (log ratio)” value was -4.41.
For C53G U126A, the “polymerase ribozyme fitness (log ratio)” value was -2.29.
In the case of C53G A66C A83G A84U, the “polymerase ribozyme fitness (log ratio)” value is reported as -3.08.
For G51A G57U A83G A84U A105G U130G, the “polymerase ribozyme fitness (log ratio)” value was -6.12.
In the case of C53G C56A G60A A111G, the “polymerase ribozyme fitness (log ratio)” value is reported as -0.505.
For C53U U54G C56U U129C U133G, the “polymerase ribozyme fitness (log ratio)” value was -0.985.
For G52A C80U, the “polymerase ribozyme fitness (log ratio)” value was -1.94.
In the case of G52U G113U, the “polymerase ribozyme fitness (log ratio)” value is reported as -3.87.
For U54C C115U G127C, the “polymerase ribozyme fitness (log ratio)” value was -1.97.
With U54A C85U C97U the “polymerase ribozyme fitness (log ratio)” value was -1.5.
With G52A G69A G93U C123U the “polymerase ribozyme fitness (log ratio)” value was -3.78.
For G51A C62U G113A, the “polymerase ribozyme fitness (log ratio)” value was -3.5.
In the case of G52A G60U, the “polymerase ribozyme fitness (log ratio)” value is reported as -2.42.
In the case of C53G G120A G127U, the “polymerase ribozyme fitness (log ratio)” value is reported as -0.0103.
For G51A G127A, the “polymerase ribozyme fitness (log ratio)” value was -3.6.
In the case of G51U G120C U133G, the “polymerase ribozyme fitness (log ratio)” value is reported as -1.86.
With U54A C76U the “polymerase ribozyme fitness (log ratio)” value was -0.995.
With G51U G110A the “polymerase ribozyme fitness (log ratio)” value was -5.3.
In the case of G51A C79A G113A, the “polymerase ribozyme fitness (log ratio)” value is reported as -3.64.
For C53G C114U, the “polymerase ribozyme fitness (log ratio)” value was -2.03.
With C53G G57C G63C the “polymerase ribozyme fitness (log ratio)” value was -0.44.
For G52U G61C C123A, the “polymerase ribozyme fitness (log ratio)” value was -0.217.
For U54A C72U C102G U112G, the “polymerase ribozyme fitness (log ratio)” value was -5.88.
In the case of C53A C85G, the “polymerase ribozyme fitness (log ratio)” value is reported as -1.17.
In the case of G52U G93U, the “polymerase ribozyme fitness (log ratio)” value is reported as -1.93.
For C53G C56U, the “polymerase ribozyme fitness (log ratio)” value was -0.756.
With C53U A74G C98U the “polymerase ribozyme fitness (log ratio)” value was -1.16.
In the case of C53A G63A U78C G110U, the “polymerase ribozyme fitness (log ratio)” value is reported as -3.53.
With C53U U78A A103U A121C U132C the “polymerase ribozyme fitness (log ratio)” value was -4.38.
With C53A C56A G58C A68U C80A the “polymerase ribozyme fitness (log ratio)” value was -6.56.
With G52A C82U the “polymerase ribozyme fitness (log ratio)” value was -0.917.
In the case of C53U C62U A111U A118U G135A, the “polymerase ribozyme fitness (log ratio)” value is reported as -3.23.
In the case of C53A A68G, the “polymerase ribozyme fitness (log ratio)” value is reported as -2.61.
For G51C G61U C64A C79A G117A U133G, the “polymerase ribozyme fitness (log ratio)” value was -6.91.
In the case of U54A C86U C124U, the “polymerase ribozyme fitness (log ratio)” value is reported as 1.14.
In the case of U54A C115U U131C G135C, the “polymerase ribozyme fitness (log ratio)” value is reported as -1.35.
For G52U C53A C73U, the “polymerase ribozyme fitness (log ratio)” value was -1.08.
For G52C C72A C94U G128A, the “polymerase ribozyme fitness (log ratio)” value was -2.33.
With G52C G57C C79G C86U C115U the “polymerase ribozyme fitness (log ratio)” value was -1.83.
In the case of G51A C89U U130A, the “polymerase ribozyme fitness (log ratio)” value is reported as -3.01.
For U54A C70U C94A, the “polymerase ribozyme fitness (log ratio)” value was -1.72.
For G51A A95G, the “polymerase ribozyme fitness (log ratio)” value was -2.62.
In the case of G51U G60U G69C C73G, the “polymerase ribozyme fitness (log ratio)” value is reported as -4.99.
With G52C the “polymerase ribozyme fitness (log ratio)” value was -0.632.
In the case of G52A, the “polymerase ribozyme fitness (log ratio)” value is reported as -0.286.
For G52U, the “polymerase ribozyme fitness (log ratio)” value was -0.82.
In the case of C53A G117A, the “polymerase ribozyme fitness (log ratio)” value is reported as 0.856.
With G52U G117A the “polymerase ribozyme fitness (log ratio)” value was -1.81.
For G52U G57U G128C, the “polymerase ribozyme fitness (log ratio)” value was -4.79.
In the case of C53A C82G A84G, the “polymerase ribozyme fitness (log ratio)” value is reported as -0.378.
With U54C C72U C89U A111C the “polymerase ribozyme fitness (log ratio)” value was -0.0742.
For C53G C97U A118U, the “polymerase ribozyme fitness (log ratio)” value was -0.0977.
In the case of C53U G63C C98G, the “polymerase ribozyme fitness (log ratio)” value is reported as -6.12.
In the case of U54A U133G, the “polymerase ribozyme fitness (log ratio)” value is reported as -0.274.
With G52A G61C the “polymerase ribozyme fitness (log ratio)” value was -4.29.
In the case of G51U C72U, the “polymerase ribozyme fitness (log ratio)” value is reported as -3.99.
With G52U C76G C97U the “polymerase ribozyme fitness (log ratio)” value was -2.35.
In the case of G52U U125A, the “polymerase ribozyme fitness (log ratio)” value is reported as -0.984.
For G52U U125G, the “polymerase ribozyme fitness (log ratio)” value was -1.12.
With G51A C53A G61A C73U U133A the “polymerase ribozyme fitness (log ratio)” value was -2.11.
With G52C G60U the “polymerase ribozyme fitness (log ratio)” value was -1.44.
With G52C C53G G120U the “polymerase ribozyme fitness (log ratio)” value was -2.13.
In the case of G52C C124U, the “polymerase ribozyme fitness (log ratio)” value is reported as 1.26.
For G52U G63A G120U, the “polymerase ribozyme fitness (log ratio)” value was -1.08.
In the case of U54C G60U G69U U133G, the “polymerase ribozyme fitness (log ratio)” value is reported as -2.67.
